How the values were obtained:
rhCTLA-4/Fc/6His (human) = assay: BLI (Octet RED96), antibody amine-coupled to biosensor, rhCTLA-4/Fc 2.5-40 nM, 1:1 global fit
[1] = target: human CTLA-4 (Y166G and Y183G) expressed on CHO-K1.hCTLA-4 cells (human) (UniProt P16410); assay: CELISA, blockade of biotinylated hCD86/Fc binding to CHO-K1.hCTLA-4 cells (Example 6)
human CTLA-4 (human) = human CTLA-4 (human) (UniProt P16410); assay: CELISA on CHO-K1 cells transiently transfected with human CTLA-4, panel Human
[2] = target: human CTLA-4 (Y166G and Y183G) expressed on CHO-K1.hCTLA-4 cells (human) (UniProt P16410); assay: CELISA, blockade of biotinylated hCD80/Fc binding to CHO-K1.hCTLA-4 cells (Example 6)
[3] = target: Mou-Hum-CTLA-4 (mouse/human chimera); assay: CELISA on CHO-K1 cells transiently transfected with Mou-Hum-CTLA-4, panel Mouse/Human
[4] = target: human CTLA-4 (Y166G and Y183G) expressed on CHO-K1.hCTLA-4 cells (human) (UniProt P16410); assay: CELISA on CHO-K1.hCTLA-4 cells (Example 6)

Sequence of human CTLA-4 (Y166G and Y183G) expressed on CHO-K1.hCTLA-4 cells (human) (P16410 36-223 Y201G/Y218G limits assumed): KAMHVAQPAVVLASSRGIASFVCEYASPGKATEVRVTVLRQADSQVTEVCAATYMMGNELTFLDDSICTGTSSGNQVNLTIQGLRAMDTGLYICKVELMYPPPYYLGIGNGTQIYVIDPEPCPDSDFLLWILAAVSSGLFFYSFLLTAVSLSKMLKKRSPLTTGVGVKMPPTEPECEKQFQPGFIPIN
Sequence of CP-675,206 (antibody) (VH): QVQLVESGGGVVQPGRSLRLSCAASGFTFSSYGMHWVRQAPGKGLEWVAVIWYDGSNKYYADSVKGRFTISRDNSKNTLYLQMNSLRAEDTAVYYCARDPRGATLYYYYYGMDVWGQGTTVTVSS
Sequence of CP-675,206 (antibody) (VL): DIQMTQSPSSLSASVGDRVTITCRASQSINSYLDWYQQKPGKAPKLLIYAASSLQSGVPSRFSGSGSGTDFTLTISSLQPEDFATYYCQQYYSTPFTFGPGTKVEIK
Sequence of human CTLA-4 (human) (P16410 36-223 limits assumed): as the sequence (P16410 36-223 Y201G/Y218G limits assumed) above, with G166Y, G183Y counted along it
Sequence of Mou-Hum-CTLA-4 (mouse/human chimera) (chain, as listed by the source mutant limits assumed): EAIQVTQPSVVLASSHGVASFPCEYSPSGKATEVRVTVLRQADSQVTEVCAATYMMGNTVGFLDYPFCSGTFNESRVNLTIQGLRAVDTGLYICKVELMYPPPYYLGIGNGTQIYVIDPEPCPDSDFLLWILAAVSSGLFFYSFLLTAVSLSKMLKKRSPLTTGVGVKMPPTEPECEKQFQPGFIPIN
Sequence of rhCTLA-4/Fc/6His (human) (chain, as listed by the source limits assumed): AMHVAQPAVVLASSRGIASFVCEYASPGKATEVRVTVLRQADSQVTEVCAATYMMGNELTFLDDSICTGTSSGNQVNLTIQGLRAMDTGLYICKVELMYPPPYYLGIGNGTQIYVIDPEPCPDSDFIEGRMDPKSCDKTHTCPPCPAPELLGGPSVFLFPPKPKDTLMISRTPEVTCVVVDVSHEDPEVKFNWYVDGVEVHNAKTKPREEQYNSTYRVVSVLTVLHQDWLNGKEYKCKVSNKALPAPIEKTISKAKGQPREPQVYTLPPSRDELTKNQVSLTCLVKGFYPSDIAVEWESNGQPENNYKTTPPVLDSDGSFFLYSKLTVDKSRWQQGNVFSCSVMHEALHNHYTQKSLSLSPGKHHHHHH

Kd (rhCTLA-4/Fc/6His (human)): 3.4 nM
IC50 [1]: 1.69 nM
EC50 (read off the curve) (human CTLA-4 (human)): 0.05 nM
IC50 [2]: 1.75 nM
EC50 (read off the curve) [3]: 0.04 nM
EC50 [4]: 0.037 nM
Substance: CP-675,206 (antibody)

From US20180037654A1
